From the RNAGym collection of RNA variant scans (doi:10.7554/elife.80360)

B1: CPEB3 Ribozyme (parent)
chain: GGGGGCCACAGCAGAAGCGUUCACGUCGCGGCCCCUGUCAGAUUCUGGUGAAUCUGCGAAUUCUGCUGU

Variants of: B1
Experiment: self-cleavage, relative activity (ratio to wild type); higher = more cleavage; co-transcriptional

Variant	self-cleavage
G56C G68A	0.918
G56C G68U	0.971
G56C U61A	0.554
G56C U61C	0.434
G56C U61G	0.483
G56C U62A	0.355
G56C U62C	0.524
G56C U64A	0.504
G56C U64C	0.637
G56C U67A	0.941
G56C U67C	0.878
G56C U67G	0.758
G56C U69A	0.874
G56C U69C	1.02
G56C U69G	0.925
G56U	0.968
G56U A59G	0.909
G56U A60G	0.712
G56U A60U	0.293
G56U C57G	0.384
G56U C63A	0.51

Variant	self-cleavage
G56U C63G	0.485
G56U C63U	0.842
G56U C66A	0.447
G56U G58A	0.924
G56U G58C	0.989
G56U G58U	0.978
G56U G65C	0.506
G56U G68U	0.985
G56U U61A	0.752
G56U U62A	0.654
G56U U62C	0.67
G56U U62G	0.563
G56U U64C	0.762
G56U U69A	1
G56U U69C	1.04
C57A A59G	0.426
C57A A59U	0.46
C57A A60C	0.264
C57A A60U	0.415
C57A C63A	0.351
C57A C63G	0.404

Variant	self-cleavage
C57A C63U	0.408
C57A C66A	0.37
C57A C66G	0.373
C57A C66U	0.267
C57A G58A	0.313
C57A G58U	0.367
C57A G65A	0.346
C57A G68A	0.367
C57A G68U	0.394
C57A U61C	0.273
C57A U62C	0.339
C57A U62G	0.409
C57A U64A	0.357
C57A U64C	0.401
C57A U67G	0.445
C57A U69A	0.377
C57A U69G	0.455
C57G A59G	0.375
C57G A59U	0.388
C57G A60G	0.294
C57G A60U	0.291

Variant	self-cleavage
C57G C63A	0.291
C57G C66A	0.308
C57G G58A	0.377
C57G G58C	0.356
C57G G58U	0.463
C57G G65A	0.37
C57G G65C	0.428
C57G G65U	0.254
C57G G68A	0.374
C57G G68C	0.388
C57G U61A	0.399
C57G U61C	0.377
C57G U61G	0.439
C57G U62A	0.333
C57G U64A	0.349
C57G U64C	0.38
C57G U64G	0.394
C57G U67A	0.325
C57G U67C	0.428
C57G U67G	0.489
C57G U69C	0.451
